Laboratory results reported in PMC5947528.

Target: E. coli 3'-phosphoadenosine 5'-phosphosulfate (PAPS) reductase (E. coli) (UniProt P17854)
Chain of UniProt P17854 (P17854 whole entry): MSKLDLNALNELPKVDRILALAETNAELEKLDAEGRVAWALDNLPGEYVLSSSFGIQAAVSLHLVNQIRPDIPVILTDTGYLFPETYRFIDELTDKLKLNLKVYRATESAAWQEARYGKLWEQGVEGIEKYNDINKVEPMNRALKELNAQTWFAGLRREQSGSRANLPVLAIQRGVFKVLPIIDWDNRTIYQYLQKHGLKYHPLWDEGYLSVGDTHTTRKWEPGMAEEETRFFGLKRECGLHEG

Binder | kcat Km^-1 of PR with the redoxin, percent of that with E. coli Trx1 | Km of PR for the redoxin as electron donor (PAPS reductase assay) | Vmax of PR with the redoxin as electron donor (PAPS reductase assay)
Arabidopsis thaliana TrxH2 (enzyme) MGGALSTVFGSGEDATAAGTESEPSRVLKFSSSARWQLHFNEIKESNKLLVVDFSASWCGPCRMIEPAIHAMADKFNDVDFVKLDVDELPDVAKEFNVTAMPTFVLVKRGKEIERIIGAKKDELEKKVSKLRA | 23% | 43.1 µM | –
Arabidopsis thaliana TrxH3 (enzyme) MAAEGEVIACHTVEDWTEKLKAANESKKLIVIDFTATWCPPCRFIAPVFADLAKKHLDVVFFKVDVDELNTVAEEFKVQAMPTFIFMKEGEIKETVVGAAKEEIIANLEKHKTVVAAA | 154% | 17.8 µM | 13.2 U mg^-1
Arabidopsis thaliana TrxH1 (enzyme) MASEEGQVIACHTVETWNEQLQKANESKTLVVVDFTASWCGPCRFIAPFFADLAKKLPNVLFLKVDTDELKSVASDWAIQAMPTFMFLKEGKILDKVVGAKKDELQSTIAKHLA | 18% | – | –

Next, values leading:

kcat Km^-1 of PR with the redoxin, percent of that with E. coli Trx1 | Km of PR for the redoxin as electron donor (PAPS reductase assay) | Vmax of PR with the redoxin as electron donor (PAPS reductase assay) | Binder
59% | – | – | human Trx1 (enzyme) MVKQIESKTAFQEALDAAGDKLVVVDFSATWCGPCKMIKPFFHSLSEKYSNVIFLEVDVDDCQDVASECEVKCMPTFQFFKKGQKVGEFSGANKEKLEATINELV
– | 26.1 µM | – | Arabidopsis thaliana TrxH4 (enzyme) MAAEEGQVIGCHTNDVWTVQLDKAKESNKLIVIDFTASWCPPCRMIAPIFNDLAKKFMSSAIFFKVDVDELQSVAKEFGVEAMPTFVFIKAGEVVDKLVGANKEDLQAKIVKHTGVTTA
